These results are taken from PMC2148462.

Assay [1] addresses GST-moesin (1–323 aa) (human) (UniProt P26038). The assay is described as follows: pull-down.
Assay [2] has as its target HA-full-length moesin (1–577 aa) (mouse) (UniProt P26041). Kind of assay: pull-down.
For assay [3], the target named is MBS (myosin-binding subunit of myosin phosphatase), endogenous in MDCK cells (dog (endogenous in MDCK)). The assay is described as follows: co-IP.

Sequence of UniProt P26038 (P26038 1-323): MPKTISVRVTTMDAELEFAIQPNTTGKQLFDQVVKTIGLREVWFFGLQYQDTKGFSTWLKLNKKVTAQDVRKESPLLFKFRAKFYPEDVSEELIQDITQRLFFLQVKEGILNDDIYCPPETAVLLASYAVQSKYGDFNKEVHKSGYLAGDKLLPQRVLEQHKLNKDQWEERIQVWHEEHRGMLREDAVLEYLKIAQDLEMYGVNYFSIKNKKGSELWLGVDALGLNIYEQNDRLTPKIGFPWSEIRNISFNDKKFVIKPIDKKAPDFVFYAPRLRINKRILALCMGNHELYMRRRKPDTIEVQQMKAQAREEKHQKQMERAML
Sequence of UniProt P26041 (P26041 whole entry, the tested form may be a part): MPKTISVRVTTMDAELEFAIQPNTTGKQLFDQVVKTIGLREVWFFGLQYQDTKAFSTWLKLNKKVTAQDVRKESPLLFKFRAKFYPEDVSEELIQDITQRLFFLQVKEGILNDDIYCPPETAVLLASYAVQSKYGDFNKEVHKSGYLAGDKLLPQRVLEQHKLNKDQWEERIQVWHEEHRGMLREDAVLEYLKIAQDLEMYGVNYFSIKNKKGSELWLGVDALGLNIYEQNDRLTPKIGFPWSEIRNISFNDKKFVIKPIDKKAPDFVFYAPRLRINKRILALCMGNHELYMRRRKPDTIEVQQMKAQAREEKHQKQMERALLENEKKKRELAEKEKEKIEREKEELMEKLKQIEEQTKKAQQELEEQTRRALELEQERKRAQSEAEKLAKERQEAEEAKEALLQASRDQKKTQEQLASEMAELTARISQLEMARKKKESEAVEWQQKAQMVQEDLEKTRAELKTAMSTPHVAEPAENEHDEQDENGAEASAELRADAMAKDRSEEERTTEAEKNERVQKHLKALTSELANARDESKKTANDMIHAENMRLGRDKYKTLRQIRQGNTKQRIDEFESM

For orientation: Kd means a measure of binding affinity in units of concentration. In general, stoichiometry N refers to the number of molecules, sites or subunits per partner or assembly. In assay [1], “recombinant full-length rat MBS (1–976 aa), myosin-binding subunit of myosin phosphatase (natural protein)” gave a Kd of 260 nM and a stoichiometry N of 0.4. In addition, the Kd in assay [2] is 1230 nM.

On to “moesin, endogenous in MDCK cells (natural protein)”, for which, in assay [3], the percent of total moesin recovered with immunoprecipitated MBS is 0.5% and the stoichiometry N (moesin per MBS) was determined as 0.33.
